T1: Full-length Human OX40 (human, UniProt P43489 29-277)
T1 sequence: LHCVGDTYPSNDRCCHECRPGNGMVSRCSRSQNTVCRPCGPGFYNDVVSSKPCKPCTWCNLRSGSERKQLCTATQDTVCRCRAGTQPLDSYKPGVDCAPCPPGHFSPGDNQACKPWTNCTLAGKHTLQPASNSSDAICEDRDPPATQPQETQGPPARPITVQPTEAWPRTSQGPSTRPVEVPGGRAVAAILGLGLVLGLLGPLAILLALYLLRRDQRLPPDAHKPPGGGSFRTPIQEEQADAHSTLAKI

T2: Human OX40 ECD-AFH (human)
T2 construct: ECD'; entry includes the C-terminal tags; also called OXF003; Human OX40 ECD-avi-flag-his
T2 chain: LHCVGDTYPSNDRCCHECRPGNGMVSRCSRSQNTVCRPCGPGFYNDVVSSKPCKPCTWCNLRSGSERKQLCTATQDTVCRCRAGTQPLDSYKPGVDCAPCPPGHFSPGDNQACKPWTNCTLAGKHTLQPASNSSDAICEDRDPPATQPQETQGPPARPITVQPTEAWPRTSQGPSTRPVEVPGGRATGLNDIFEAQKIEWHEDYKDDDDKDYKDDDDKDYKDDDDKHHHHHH

T3: Full-length Cyno 4-1BB (cynomolgus monkey, UniProt Q07011 24-255 (human entry))
T3 construct: on Jurkat or CHO cells; also called FOB006; cynomolgus 4-1BB
T3 chain: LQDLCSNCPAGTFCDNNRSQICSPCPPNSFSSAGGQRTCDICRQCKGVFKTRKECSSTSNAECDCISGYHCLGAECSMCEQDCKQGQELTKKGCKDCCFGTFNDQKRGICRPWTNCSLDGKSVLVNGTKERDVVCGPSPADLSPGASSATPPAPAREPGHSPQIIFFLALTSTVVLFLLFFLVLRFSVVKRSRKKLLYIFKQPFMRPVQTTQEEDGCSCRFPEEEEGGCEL

T4: Full-length Cyno OX40 (cynomolgus monkey, UniProt P43489 29-277 (human entry))
T4 construct: on CHO-K1SV cells; also called OXF004; cynomolgus OX40
T4 chain: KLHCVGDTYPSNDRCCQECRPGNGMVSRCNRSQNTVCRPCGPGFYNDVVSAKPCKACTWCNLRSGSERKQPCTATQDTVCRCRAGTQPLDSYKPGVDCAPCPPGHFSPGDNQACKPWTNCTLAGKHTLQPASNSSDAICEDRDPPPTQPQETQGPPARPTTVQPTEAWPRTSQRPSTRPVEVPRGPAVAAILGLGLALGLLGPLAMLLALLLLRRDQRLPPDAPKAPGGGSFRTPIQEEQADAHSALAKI


Experiments:
[1] = molecular target: T1, Full-length Human OX40; test: cell-based or functional assay
[2] = molecular target: T5, Full-length Human 4-1BB (human, UniProt Q07011 24-255); test: cell-based or functional assay
[3] = molecular target: T1, Full-length Human OX40; test: flow cytometry, CHO cells expressing human OX40
[4] = molecular target: T5, Full-length Human 4-1BB; test: flow cytometry, Jurkat cells expressing human 4-1BB
Protocol: (§1) Serial dilutions of ADAPTIR™ constructs were incubated with cells transfected with human or cynomolgus ECD and subsequently labelled with a fluorescently-conjugated goat-α-human Fc secondary antibody. […] (See Example 16.)

[5] = molecular target: T2, Human OX40 ECD-AFH; test: SPR (T200), construct captured, monomeric ECD as analyte
Protocol: (§2) Mouse anti-human IgG (GE, BR-1008-39) at 25 μg/ml in 10 mM sodium acetate pH 5.0 was immobilized at a density of ˜10,000 response units (RU) onto each flow cell of a CM5 research-grade sensor chip (GE) by standard amine coupling chemistry. Each binding protein at approximately 100 nM in HBS-EP+ with 0.2% BSA buffer was captured in a flow cell with the immobilized anti-human IgG at a flow rate of 10 μL/min for 20 seconds, leaving one flow cell surface unmodified as the reference. Using a single-cycle kinetics mode, five different concentrations of ECD were sequentially injected through each flow cell at 30 μL/min for 300 seconds followed by a 600 second dissociation period. Regeneration was achieved by injection of 3 M MgCl₂ at a flow rate of 30 μL/min for 30 seconds followed by HBS-EP+ with 0.2% BSA buffer stabilization for 1 min.
(§3) Sensorgrams obtained from kinetic SPR measurements were analyzed by the double subtraction method. The signal from the reference flow cell was subtracted from the analyte binding response obtained from flow cells with immobilized or captured ligands. Buffer reference responses were then averaged from multiple injections. The averaged buffer reference responses were then subtracted from analyte binding responses, and the final double-referenced data were analyzed with Biacore T200 Evaluation software (2.0, GE), globally fitting data to derive kinetic parameters. All sensorgrams were fitted using a simple one-to-one binding model.

[6] = molecular target: T6, Human 4-1BB ECD-AFH (human); test: as above
T6 construct: entry includes the tags; also called FOB003; HUMAN CD137 ECD-AVI-FLAG-HIS
Protocol: as §2, §3

[7] = molecular target: T3, Full-length Cyno 4-1BB; test: flow cytometry on Jurkat cells transfected with cynomolgus 4-1BB, goat anti-human Fc secondary antibody, MFI (Mean)
Protocol: as §1

[8] = molecular target: T4, Full-length Cyno OX40; test: flow cytometry on CHOK1SV cells transfected with cynomolgus OX40, goat anti-human Fc secondary antibody, MFI (Mean)
Protocol: as §1

T6 sequence (chain, as listed by the source limits assumed): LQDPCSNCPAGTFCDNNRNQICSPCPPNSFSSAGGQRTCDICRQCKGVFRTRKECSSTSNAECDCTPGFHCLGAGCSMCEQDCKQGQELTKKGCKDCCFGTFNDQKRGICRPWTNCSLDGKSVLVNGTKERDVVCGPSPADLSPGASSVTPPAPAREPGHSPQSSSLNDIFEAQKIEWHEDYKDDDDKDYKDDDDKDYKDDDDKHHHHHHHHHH

Row | Binder | OX40 Reporter Assay EC50 [1] [nM] | OX40 Reporter Assay Max induction [1] | 4-1BB Reporter Assay EC50 [2] [nM] | 4-1BB Reporter Assay Max induction [2] | EC50 [3] [nM] | Max MFI [3] [MFI] | EC50 [4] [nM] | Max MFI [4] [MFI] | Kd [5] [nM] | koff [5] [s⁻¹] | kon [5] [M⁻¹ s⁻¹] | Kd [6] [nM] | koff [6] [s⁻¹] | kon [6] [M⁻¹ s⁻¹] | EC50 (read off the curve) [7] [nM] | EC50 (read off the curve) [8] [nM] | binding result [7]
1 | FXX01055 (bispecific antibody, ADAPTIR scFv-Fc-scFv, anti-OX40 N-terminal, anti-4-1BB C-terminal; also called FX01055) SYVLTQPPSVSVAPGQTARITCGGNNIGSKSVNWFQQKPGQAPVLVVYDDSGRPSGIPERFSGSTSGNTATLTISRVEAGDEADYYCQVWDSSSDHVVFGGGTKLTVLGGGGSGGGGSGGGGSGGGGSQVQLVESGGGVVQPGRSLRLSCAASGFTLSYYGMHWVRQAPGKGLEWVAVISHDGSDKYYADSVKGRFTISRDNSKNTLYLQMNSLRAEDTAVYYCSNDQFDPWGQGTLVTVEPKSSDKTHTCPPCPAPPAAAPSVFLFPPKPKDTLMISRTPEVTCVVVDVSHEDPEVKFNWYVDGVEVHNAKTKPREEQYNSTYRVVSVLTVLHQDWLNGKEYKCAVSNKALPAPIEKTISKAKGQPREPQVYTLPPSRDELTKNQVSLTCLVKGFYPSDIAVEWESNGQPENNYKTTPPVLDSDGSFFLYSKLTVDKSRWQQGNVFSCSVMHEALHNHYTQKSLSLSPGGGGSPSEVQLVQSGAEVKKPGASVKVSCKASGYTFTSYWMNWVRQAPGQGLEWMGNIYPGSSTTNYAQKFQGRVTMTVDTSTSTVYMELSSLRSEDTAVYYCASFSDGYYAYAMDYWGQGTLVTVSSGGGGSGGGGSGGGGSGGGGSEIVMTQSPATLSLSPGERATLSCRASQDISNYLNWYQQKPGQAVRLLIYYTSRLHSGIPARFSGSGSGTDYTLTISSLQPEDFAVYFCQQGYTLPYTFGQGTKVEIKR | 0.013 | 2.03e+06 | 0.013 | 6.82e+06 | 0.4 | 10400 | 0.27 | 4750 | 0.3 | 0.00013 | 440000 | 21 | 0.0018 | 84000 | ~1 | ~2 | 
2 | FXX01079 (bispecific antibody, ADAPTIR scFv-Fc-scFv, anti-OX40 N-terminal, anti-4-1BB C-terminal; also called FX01079) SYVLTQPPSVSVAPGQTARITCGGNNIGSKSVNWFQQKPGQAPVLVVYDDSGRPSGIPERFSGSTSGNTATLTISRVEAGDEADYYCQVWDSSSDHVVFGGGTKLTVLGGGGSGGGGSGGGGSGGGGSQVQLVESGGGVVQPGRSLRLSCAASGFTLSYYGMHWVRQAPGKGLEWVAVISHDGSDKYYADSVKGRFTISRDNSKNTLYLQMNSLRAEDTAVYYCSNDQFDPWGQGTLVTVEPKSSDKTHTCPPCPAPPAAAPSVFLFPPKPKDTLMISRTPEVTCVVVDVSHEDPEVKFNWYVDGVEVHNAKTKPREEQYNSTYRVVSVLTVLHQDWLNGKEYKCAVSNKALPAPIEKTISKAKGQPREPQVYTLPPSRDELTKNQVSLTCLVKGFYPSDIAVEWESNGQPENNYKTTPPVLDSDGSFFLYSKLTVDKSRWQQGNVFSCSVMHEALHNHYTQKSLSLSPGGGGSPSEVQLVQSGAEVKKPGASVKVSCKASGYTFTSYWMNWVRQAPGQGLEWMGNIYPSGGSTNYAQKFQGRVTMTVDTSTSTVYMELSSLRSEDTAVYYCASFSDGYYAYAMDYWGQGTLVTVSSGGGGSGGGGSGGGGSGGGGSEIVMTQSPATLSLSPGERATLSCRASQSVSSYLNWYQQKPGQAPRLLIYYASRRHTGIPARFSGSGSGTDFTLTISSLQPEDFAVYYCQQGYNLPYTFGQGTKVEIKR | 0.023 | 470000 | 0.025 | 6.26e+06 | 1.4 | 9820 | 0.53 | 4120 | 0.3 | 0.00012 | 450000 | 37 | 0.0038 | 100000 |  | ~2 | binds
3 | FXX01047 (bispecific antibody, ADAPTIR scFv-Fc-scFv, anti-4-1BB N-terminal, anti-OX40 C-terminal; also called FX01047) EVQLVQSGAEVKKPGASVKVSCKASGYTFTSYWMNWVRQAPGQGLEWMGNIYPGSSTTNYAQKFQGRVTMTVDTSTSTVYMELSSLRSEDTAVYYCASFSDGYYAYAMDYWGQGTLVTVSSGGGGSGGGGSGGGGSGGGGSEIVMTQSPATLSLSPGERATLSCRASQDISNYLNWYQQKPGQAVRLLIYYTSRLHSGIPARFSGSGSGTDYTLTISSLQPEDFAVYFCQQGYTLPYTFGQGTKVEIKEPKSSDKTHTCPPCPAPPAAAPSVFLFPPKPKDTLMISRTPEVTCVVVDVSHEDPEVKFNWYVDGVEVHNAKTKPREEQYNSTYRVVSVLTVLHQDWLNGKEYKCAVSNKALPAPIEKTISKAKGQPREPQVYTLPPSRDELTKNQVSLTCLVKGFYPSDIAVEWESNGQPENNYKTTPPVLDSDGSFFLYSKLTVDKSRWQQGNVFSCSVMHEALHNHYTQKSLSLSPGGGGSPSSYVLTQPPSVSVAPGQTARITCGGNNIGSKSVNWFQQKPGQAPVLVVYDDSGRPSGIPERFSGSTSGNTATLTISRVEAGDEADYYCQVWDSSSDHVVFGGGTKLTVLGGGGSGGGGSGGGGSGGGGSQVQLVESGGGVVQPGRSLRLSCAASGFTLSYYGMHWVRQAPGKGLEWVAAISHDGSDKYYADSVKGRFTISRDNSKNTLYLQMNSLRAEDTAVYYCSNDQFDPWGQGTLVTVSSR | 0.01 | 1.97e+06 | 0.014 | 6.58e+06 | 0.35 | 10500 | 0.32 | 4940 | 0.4 | 0.00016 | 400000 | 7 | 0.002 | 280000 | ~0.6 | ~2 | 

— patent US20220242962A1 (APTEVO RESEARCH AND DEVELOPMENT, published 2022)
